# Literature values in US12440573B2, “Antibody-conjugates for targeting of tumours expressing PTK7” (Synaffix B.V., priority 2022, dated 2025).
# Assays:
# [1] = test system: locally advanced/metastatic, PTK7-positive NSCLC, TNBC, and platinum-resistant OvCa; details: previously treated patients, administered every 2 or 3 weeks
# [2] = test system: patient-derived, tumor xenograft preclinical models
molecule,measurement,setting,value
"PF-06647020: prior-art ADC: humanized anti-PTK7 antibody with auristatin microtubule inhibitor payload (Aur0101) (conjugate, chains of the INN, looked up, Aur0101 auristatin payload) VH: QVQLVQSGPEVKKPGASVKVSCKASGYTFTDYAVHWVRQAPGKRLEWIGVISTYNDYTYNNQDFKGRVTMTRDTSASTAYMELSRLRSEDTAVYYCARGNSYFYALDYWGQGTSVTVSS VL: EIVLTQSPATLSLSPGERATLSCRASESVDSYGKSFMHWYQQKPGQAPRLLIYRASNLESGIPARFSGSGSGTDFTLTISSLEPEDFAVYYCQQSNEDPWTFGGGTKLEIK",clinical activity,[1],preliminary clinical activity
same,safety profile,[1],tolerable safety profile
same,tumor regression,[2],prolonged tumor regression
